Laboratory results as given in patent publication US20210032365A1 (Chugai, published 2021).
Changes are numbered by the printed parent chain.

B1: C1_IPN92H0033-SG4GK/IPN93L0072-SK1 (antibody, human IgG4 S228P, kappa, name in Kabat numbering, V domains shown)
VH: EVMLVESGGGLVKPGGSLRLSCAASGFTFSNYAMSWVRQAPGKGLEWVATISSGGSHTYYLDSVKGRFTISRDNSKDTLYLQMNSLRAEDTALYYCARLFTGHAMDYWGQGTLVTVSS
VL: QIVLTQSPATLSLSPGERATLSCTASSSVKSSYLHWYQQKPGKAPKLWIYSTSNLASGVPSRFSGSGSGTDYTLTISSLQPEDFATYYCHQYYRLHPITFGQGTKLEIKR
notes: also called IPN92H0033/IPN93L0072
B2: C1_IPN92H0079-SG4GK/IPN93L0024-SK1 (antibody, human IgG4 S228P, kappa, name in Kabat numbering, V domains shown)
VH: B1 VH with Y32K
VL: B1 VL with K30S
notes: also called IPN92H0079/IPN93L0024
B3: C1_IPN92H0281-SG4GK/IPN93L0091-SK1 (antibody, human IgG4 S228P, kappa, name in Kabat numbering, V domains shown)
VH: B1 VH with H57K, Y60E, K65D, G66E, G102K
VL: B1 VL with K30S, Y33R
notes: also called IPN92H0281/IPN93L0091
B4: C1_IPN92H0159-SG4GK/IPN93L0024-SK1 (antibody, human IgG4 S228P, kappa, name in Kabat numbering, V domains shown)
VH: B1 VH with Y60D
VL: B1 VL with K30S
notes: also called IPN92H0159/IPN93L0024
B5: C1_IPN92H0117-SG4GK/IPN93L0024-SK1 (antibody, human IgG4 S228P, kappa, name in Kabat numbering, V domains shown)
VH: B1 VH with S53Q
VL: B1 VL with K30S
notes: also called IPN92H0117/IPN93L0024
B6: C1_IPN92H0157-SG4GK/IPN93L0024-SK1 (antibody, human IgG4 S228P, kappa, name in Kabat numbering, V domains shown)
VH: B1 VH with Y59R
VL: B1 VL with K30S
notes: also called IPN92H0157/IPN93L0024
B7: C1_IPN92H0166-SG4GK/IPN93L0024-SK1 (antibody, human IgG4 S228P, kappa, name in Kabat numbering, V domains shown)
VH: B1 VH with L61E
VL: B1 VL with K30S
notes: also called IPN92H0166/IPN93L0024
B8: C1_IPN92H0232-SG4GK/IPN93L0024-SK1 (antibody, human IgG4 S228P, kappa, name in Kabat numbering, V domains shown)
VH: B1 VH with G102R
VL: B1 VL with K30S
notes: also called IPN92H0232/IPN93L0024
B9: C1_IPN92H0156-SG4GK/IPN93L0024-SK1 (antibody, human IgG4 S228P, kappa, name in Kabat numbering, V domains shown)
VH: B1 VH with Y59K
VL: B1 VL with K30S
notes: also called IPN92H0156/IPN93L0024
B10: C1_IPN92H0160-SG4GK/IPN93L0024-SK1 (antibody, human IgG4 S228P, kappa, name in Kabat numbering, V domains shown)
VH: B1 VH with Y60E
VL: B1 VL with K30S
notes: also called IPN92H0160/IPN93L0024
B11: C1_IPN92H0188-SG4GK/IPN93L0024-SK1 (antibody, human IgG4 S228P, kappa, name in Kabat numbering, V domains shown)
VH: B1 VH with K65D
VL: B1 VL with K30S
notes: also called IPN92H0188/IPN93L0024
B12: C1_IPN92H0144-SG4GK/IPN93L0024-SK1 (antibody, human IgG4 S228P, kappa, name in Kabat numbering, V domains shown)
VH: B1 VH with H57K
VL: B1 VL with K30S
notes: also called IPN92H0144/IPN93L0024
B13: C1_IPN92H0061-SG4GK/IPN93L0024-SK1 (antibody, human IgG4 S228P, kappa, name in Kabat numbering, V domains shown)
VH: B1 VH with F29K
VL: B1 VL with K30S
notes: also called IPN92H0061/IPN93L0024
B14: C1_IPN92H0253-SG4GK/IPN93L0024-SK1 (antibody, human IgG4 S228P, kappa, name in Kabat numbering, V domains shown)
VH: B1 VH with D106K
VL: B1 VL with K30S
notes: also called IPN92H0253/IPN93L0024
B15: C1_IPN92H0165-SG4GK/IPN93L0024-SK1 (antibody, human IgG4 S228P, kappa, name in Kabat numbering, V domains shown)
VH: B1 VH with L61D
VL: B1 VL with K30S
notes: also called IPN92H0165/IPN93L0024
B16: C1_IPN92H0279-SG4GK/IPN93L0091-SK1 (antibody, human IgG4 S228P, kappa, name in Kabat numbering, V domains shown)
VH: B1 VH with Y60E, G66E, G102K
VL: B1 VL with K30S, Y33R
notes: also called IPN92H0279/IPN93L0091
B17: C1_IPN92H0033-SG4GK/IPN93L0090-SK1 (antibody, human IgG4 S228P, kappa, name in Kabat numbering, V domains shown)
VH: B1 VH
VL: B1 VL with K30S, Y33K
notes: also called IPN92H0033/IPN93L0090
B18: C1_IPN92H0162-SG4GK/IPN93L0024-SK1 (antibody, human IgG4 S228P, kappa, name in Kabat numbering, V domains shown)
VH: B1 VH with Y60K
VL: B1 VL with K30S
notes: also called IPN92H0162/IPN93L0024
B19: C1_IPN92H0261-SG4GK/IPN93L0091-SK1 (antibody, human IgG4 S228P, kappa, name in Kabat numbering, V domains shown)
VH: B1 VH with Y60E, G102K
VL: B1 VL with K30S, Y33R
notes: also called IPN92H0261/IPN93L0091
B20: C1_IPN92H0281-SG4GK/IPN93L0024-SK1 (antibody, human IgG4 S228P, kappa, name in Kabat numbering)
heavy: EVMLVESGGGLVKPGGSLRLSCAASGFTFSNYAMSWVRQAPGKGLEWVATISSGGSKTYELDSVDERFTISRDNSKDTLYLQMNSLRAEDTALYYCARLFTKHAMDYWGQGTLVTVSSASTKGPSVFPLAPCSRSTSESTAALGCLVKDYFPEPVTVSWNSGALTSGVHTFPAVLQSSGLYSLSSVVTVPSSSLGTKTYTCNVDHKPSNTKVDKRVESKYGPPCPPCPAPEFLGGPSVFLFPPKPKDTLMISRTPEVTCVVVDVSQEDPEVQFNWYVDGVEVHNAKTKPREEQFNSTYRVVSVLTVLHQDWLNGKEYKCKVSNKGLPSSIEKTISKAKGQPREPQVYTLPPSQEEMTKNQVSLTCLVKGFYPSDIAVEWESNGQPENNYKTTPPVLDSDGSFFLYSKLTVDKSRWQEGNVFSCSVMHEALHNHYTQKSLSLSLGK
light: QIVLTQSPATLSLSPGERATLSCTASSSVSSSYLHWYQQKPGKAPKLWIYSTSNLASGVPSRFSGSGSGTDYTLTISSLQPEDFATYYCHQYYRLHPITFGQGTKLEIKRTVAAPSVFIFPPSDEQLKSGTASVVCLLNNFYPREAKVQWKVDNALQSGNSQESVTEQDSKDSTYSLSSTLTLSKADYEKHKVYACEVTHQGLSSPVTKSFNRGEC
notes: also called IPN92H0281/IPN93L0024
B21: C1_IPN92H0091-SG4GK/IPN93L0024-SK1 (antibody, human IgG4 S228P, kappa, name in Kabat numbering, V domains shown)
VH: B1 VH with M34K
VL: B1 VL with K30S
notes: also called IPN92H0091/IPN93L0024
B22: C1_IPN92H0193-SG4GK/IPN93L0024-SK1 (antibody, human IgG4 S228P, kappa, name in Kabat numbering, V domains shown)
VH: B1 VH with G66D
VL: B1 VL with K30S
notes: also called IPN92H0193/IPN93L0024
B23: C1_IPN92H0145-SG4GK/IPN93L0024-SK1 (antibody, human IgG4 S228P, kappa, name in Kabat numbering, V domains shown)
VH: B1 VH with H57R
VL: B1 VL with K30S
notes: also called IPN92H0145/IPN93L0024
B24: C1_IPN92H0194-SG4GK/IPN93L0024-SK1 (antibody, human IgG4 S228P, kappa, name in Kabat numbering, V domains shown)
VH: B1 VH with G66E
VL: B1 VL with K30S
notes: also called IPN92H0194/IPN93L0024
B25: C1_IPN92H0147-SG4GK/IPN93L0024-SK1 (antibody, human IgG4 S228P, kappa, name in Kabat numbering, V domains shown)
VH: B1 VH with T58D
VL: B1 VL with K30S
notes: also called IPN92H0147/IPN93L0024
B26: C1_IPN92H0231-SG4GK/IPN93L0024-SK1 (antibody, human IgG4 S228P, kappa, name in Kabat numbering, V domains shown)
VH: B1 VH with G102K
VL: B1 VL with K30S
notes: also called IPN92H0231/IPN93L0024

Biological target: T1, human C1s (human, UniProt P09871 16-688)
T1 construct: also called hC1s; serum-derived human C1s (CompTech)
T1 sequence: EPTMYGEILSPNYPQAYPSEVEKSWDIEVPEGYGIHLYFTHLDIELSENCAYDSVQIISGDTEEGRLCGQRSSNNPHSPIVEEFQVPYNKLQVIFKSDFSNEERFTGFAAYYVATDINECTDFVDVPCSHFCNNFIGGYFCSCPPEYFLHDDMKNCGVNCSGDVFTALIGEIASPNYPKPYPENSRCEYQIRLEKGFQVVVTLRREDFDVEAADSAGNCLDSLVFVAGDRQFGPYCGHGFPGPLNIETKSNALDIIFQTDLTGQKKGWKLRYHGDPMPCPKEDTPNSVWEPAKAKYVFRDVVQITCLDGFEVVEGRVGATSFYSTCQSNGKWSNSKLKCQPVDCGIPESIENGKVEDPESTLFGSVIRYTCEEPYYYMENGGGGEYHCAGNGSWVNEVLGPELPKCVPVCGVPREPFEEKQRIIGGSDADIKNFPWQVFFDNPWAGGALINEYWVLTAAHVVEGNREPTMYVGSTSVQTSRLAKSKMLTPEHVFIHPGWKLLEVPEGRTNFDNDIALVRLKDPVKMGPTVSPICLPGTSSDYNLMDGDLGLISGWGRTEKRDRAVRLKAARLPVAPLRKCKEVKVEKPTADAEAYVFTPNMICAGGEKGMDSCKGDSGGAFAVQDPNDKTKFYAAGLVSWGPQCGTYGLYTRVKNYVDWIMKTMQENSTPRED
Assay: SPR, Ab captured; pH 7.4, 1.2 mM Ca
Description: Each antibody was captured onto the sensor surface by protein A/G. Antibody capture levels were aimed at 200 resonance unit (RU). Serum-derived human C1s (CompTech) or recombinant C1s prepared in EXAMPLE 1 was injected at 50 nM, followed by dissociation. The sensor surface was regenerated in each cycle with 10 mM Glycine-HCl, pH 1.5. […] The ratio of KD 5.8+ to KD 7.4+(“KD 5+/7+”) and that of KD 5.8− to KD 7.4+(“KD 5−/7+”) were calculated. When the KD 5+/7+ or KD 5−/7+ of a variant is larger than that of the parent antibody IPN009VH2-SG4GK/IPN009VK3-SK1, that variant is considered to be “pH”- or “pH and Ca”-dependent, respectively. When binding response in 5(+) buffer and/or in 5(−) buffer of a variant is much lower than that of IPN09VH2/IPN009VK3, that variant is also considered as “pH”- and/or “pH and Ca”-dependent. Therefore, such mutations are effective to generate “pH”- and/or “pH and Ca”-dependent antibody. To further enhance “pH” and/or “pH and Ca” dependency, a combination of histidine mutations was conducted. Antibodies with combinations of histidine mutations were evaluated using Biacore by the method described above.
C1_1IPN92H0033 (SEQ ID NO: 17)-SG4GK/IPN93L0024 (SEQ ID NO: 18)-SK1 (IPN92H0033/IPN93L0024) was selected for further optimization. Histidine, Lysine, Arginine, aspartic acid, glutamic acid, and glutamine scanning was conducted for CDRs and certain positions of FRs of IPN92H0033/IPN93L0024. Variants with a mutation were generated and purified, and evaluated using Biacore by the method mentioned above. All variants were evaluated using Biacore as mentioned above. Mutations that improved “pH” and/or “pH and Ca” dependency were selected for the combination.

Binder	Kd [nM]	koff [s⁻¹]	kon [M⁻¹ s⁻¹]
B1	1.37	0.000567	413000
B2	3.36	0.00125	373000
B3	4.72	0.00216	457000
B4	2.06	0.000621	302000
B5	3.41	0.000863	253000
B6	2.03	0.000689	340000
B7	1.76	0.000518	294000
B8	1.5	0.000609	406000
B9	2.12	0.000771	364000
B10	1.52	0.000558	368000
B11	2.03	0.000551	271000
B12	3.68	0.00126	343000
B13	6.85	0.00161	236000
B14	0.121	6.9e-05	569000
B15	1.77	0.000512	289000
B16	0.686	0.000897	1.31e+06
B17	1.4	0.000676	482000
B18	1.8	0.000545	303000
B19	0.985	0.000774	786000
B20	2.52	0.001	396000
B21	2.69	0.000746	277000
B22	0.925	0.000474	513000
B23	4.71	0.00157	333000
B24	0.885	0.000468	529000
B25	2.05	0.000765	374000
B26	1.3	0.000577	444000
